Source: article PMC4232046, “The Janus transcription factor HapX controls fungal adaptation to both iron starvation and iron excess” (The EMBO Journal, 2014)

Target: the molecule itself
Experiment: SEC-MALS; static light scattering (miniDawn TREOS, Optilab T-rEX refractometer) after Superdex 200 10/300 GL; molar mass by ASTRA 6

B1: Aspergillus fumigatus HapX(24–158) (domain or fragment, UniProt Q4WER3 24-158, looked up)
chain: SPSPGPGTPGSITSKEWVIPPRPKPGRKPATDTPPTKRKAQNRAAQRAFRERRAARVNELEEQIKKIEDEHEIHIAAFKEQITNLSREVEQCRSEMTWWRDRCHALEKEVSVERSAKEAIVKEFRSSLSDREAVR
notes: Cloned in pMAL-c2X with an extended N-terminus including a TEV site; Theoretical mass of the dimer 31.36 kDa; also called peptide corresponding to residues 24–158 of HapX
  stoichiometry N: 2
